Experiment [1] addresses CXCR4 (human, UniProt P61073 1-352). The experiment can be described thus: cell-based or functional assay.
For experiment [2], the target named is T1, SNAP-tag-CXCR4 (Tag-lite labeled CXCR4 cells, Cisbio Bioassays) (UniProt P61073 1-352, Tag-lite label on the SNAP-tag).
T1 construct: whole, on cells; Bought labelled cells; also called Tag-lite CXCR4 receptor; labeled SNAP-tag-CXCR4; not shown: SNAP-tag of the bought Tag-lite cells
Put plainly: Tag-lite HTRF competition with 50 nM fluorescent SDF-1, Cheng-Prusoff. On the procedure: (§1) Briefly, 10⁶ Tag-lite labeled CXCR4 cells were thawed at 37° C., centrifuged for 5 min at 1200 g, and re-suspended in 2.7 ml 1×Tag-lite buffer after removal of supernatant.
(Time-resolved FRET reads energy transfer from a long-lived donor to a nearby acceptor.)

Experiment [3] has as its target T1, SNAP-tag-CXCR4 (Tag-lite labeled CXCR4 …). Put plainly: Tag-lite HTRF competition with 50 nM fluorescent SDF-1 on Tag-lite labeled CXCR4 cells. On the procedure: as §1
The target in experiment [4] is T2, Human neutrophil elastase (Elastin Products Company, Inc.) (human, UniProt P08246 30-247, limits assumed).
T2 sequence (looked up): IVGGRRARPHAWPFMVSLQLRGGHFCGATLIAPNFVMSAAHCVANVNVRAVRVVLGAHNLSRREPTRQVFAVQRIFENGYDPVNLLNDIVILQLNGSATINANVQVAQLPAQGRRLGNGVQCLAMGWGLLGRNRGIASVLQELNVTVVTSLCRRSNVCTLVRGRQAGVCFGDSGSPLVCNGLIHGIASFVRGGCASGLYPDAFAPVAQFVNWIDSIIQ
The experiment can be described thus: elastase inhibition assay with fluorogenic substrate MeOSuc-AAPV-AMC (Example 28); y axis read as residual activity.

Broadly, the Ki is the dissociation constant of the complex between target and ligand, obtained from inhibition or displacement. A high value points to weaker binding. The IC50 is the concentration at which inhibition is half-maximal. The low end stands for greater potency in that assay, the high end for weaker potency in that assay.

T1 sequence (P61073 whole entry): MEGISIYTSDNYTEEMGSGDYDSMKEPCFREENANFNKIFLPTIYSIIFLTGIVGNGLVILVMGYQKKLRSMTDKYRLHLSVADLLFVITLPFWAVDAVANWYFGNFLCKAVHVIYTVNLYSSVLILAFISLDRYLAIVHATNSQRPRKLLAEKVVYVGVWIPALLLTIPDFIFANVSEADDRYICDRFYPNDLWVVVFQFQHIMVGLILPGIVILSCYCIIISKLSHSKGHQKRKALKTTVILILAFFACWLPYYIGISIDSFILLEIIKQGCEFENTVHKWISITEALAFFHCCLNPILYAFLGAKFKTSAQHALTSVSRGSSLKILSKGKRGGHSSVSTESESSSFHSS
Chain of CXCR4 (P61073 whole entry): as above

B1: BLV1H12-beta BCCX2 HC 4 IgG (antibody, V domains shown)
VH: ASGFSLSDKAVGWVRQAPGKALEWLGSIDETKKYQSYRKCRGGRRWCYQKSYTYNYETGYNPGLKSRLSITKDNSKSQVSLSVSSVTTEDSATYYCTSVHQGGGGSWHVDVWGQGLLVTVSS
VL: QAVLNQPSSVSGSLGQRVSITCSGSSSNVGNGYVSWYQLIPGSAPRTLIYGDTSRASGVPDRFSGSRSGNTATLTISSLQAEDEADYFCASAEDSSSNAVFGSGTTLTVLG
notes: Peptide grafted into CDRH2; also called bAb-AC4; BVL1H12-beta BCCX2 HC 4
Regarding B1, the “inhibition of SDF-1 induced migration of Ramos cells, EC50” value in experiment [1] turned out to be 3.2 nM. In experiment [2], this molecule showed a Ki of 0.92 nM. Also, the IC50 in experiment [3] amounted to 4.16 nM.

B2: BLV1H12-beta BCCX2 HC 2 IgG (antibody, V domains shown)
VH: QVQLRESGPSLVKPSQTLSLTCTASGFSLSDKAVGWVRQAPGKALEWLGSIDTGGNTGYNPGLKSRLSITKDNSKSQVSLSVSSVTTEDSATYYCTSVHQETKKYQSYRKCRGPRRWCYQKSYTYNYEWHVDVWGQGLLVTVSS
VL: QAVLNQPSSVSGSLGQRVSITCSGSSSNVGNGYVSWYQLIPGSAPRTLIYGDTSRASGVPDRFSGSRSGNTATLTISSLQAEDEADYFCASAEDSSSNAVFGSGTTLTVLG
notes: Bovine-human chimera with human IgG1 Fc; also called bAb-AC2
The molecule B2 yielded an inhibition constant (Ki) in experiment [2] of 5.39 nM. This molecule returned an IC50 in experiment [3] of 24.4 nM.

B3: BLV1H12-beta BCCX2 HC 3 IgG (antibody, V domains shown)
VH: QVQLRESGPSLVKPSQTLSLTCTASGFSLSDKAVGWVRQAPGKALEWLGSIDTGGNTGYNPGLKSRLSITKDNSKSQVSLSVSSVTTEDSATYYCTSVHQETKKYQSYRKCRGGNGRRWCYQKSYTYNYEWHVDVWGQGLLVTVSS
VL: QAVLNQPSSVSGSLGQRVSITCSGSSSNVGNGYVSWYQLIPGSAPRTLIYGDTSRASGVPDRFSGSRSGNTATLTISSLQAEDEADYFCASAEDSSSNAVFGSGTTLTVLG
notes: Bovine-human chimera with human IgG1 Fc; also called bAb-AC3
In the case of B3, in experiment [2], the inhibitory constant (Ki) turned out to be 19.8 nM. In addition, the IC50 in experiment [3] is 89.3 nM.

B4: trastuzumab-beta BCCX2 HC medium (antibody, human IgG1, kappa, V domains shown)
VH: EVQLVESGGGLVQPGGSLRLSCAASGFNIKDTYIHWVRQAPGKGLEWVARIYPTNGYTRYADSVKGRFTISADTSKNTAYLQMNSLRAEDTAVYYCSRETKKYRKCRGGRRWCYQKYNYEDYWGQGTLVTVSS
VL: not shown
notes: also called HMCX
As for B4, the affinity in experiment [2] corresponds to a Ki of 25.1 nM. Besides, the concentration for half-maximal inhibition (IC50) in experiment [3] amounted to 113 nM.

B5: Human BVK-beta HEI HC 6 (Fab, V domains shown)
VH: QVQLQESGPGLVRPSQTLSLTCTVSGFSLTGYGVNWVRQPPGRGLEWIGMIWGDGNTDYNSALKSRVTMLKDTSKNQFSLRLSSVTAADTAVYYCTSVHQEMCTASIPPQCYEWHVDVWGQGLLVTVSS
VL: DIQMTQSPSSLSASVGDRVTITCRASGNIHNYLAWYQQKPGKAPKLLIYYTTTLADGVPSRFSGSGSGTDYTFTISSLQPEDIATYYCQHFWSTPRTFGQGTKVEIKR
notes: also called HEI fusion protein
As for B5, the binding result in experiment [4] is “binds”.

B6: Human BVK-beta HEI HC 9 (Fab, V domains shown)
VH: QVQLQESGPGLVRPSQTLSLTCTVSGFSLTGYGVNWVRQPPGRGLEWIGMIWGDGNTDYNSALKSRVTMLKDTSKNQFSLRLSSVTAADTAVYYCTSVHQETKKMCTASIPPQCYYNYEWHVDVWGQGLLVTVSS
VL: DIQMTQSPSSLSASVGDRVTITCRASGNIHNYLAWYQQKPGKAPKLLIYYTTTLADGVPSRFSGSGSGTDYTFTISSLQPEDIATYYCQHFWSTPRTFGQGTKVEIKR
notes: as for B5
Turning to B6, the “IC50 (read off the curve)” value in experiment [4] was about 40 nM.

B7: Human BVK-beta HEI HC 8 (Fab, V domains shown)
VH: QVQLQESGPGLVRPSQTLSLTCTVSGFSLTGYGVNWVRQPPGRGLEWIGMIWGDGNTDYNSALKSRVTMLKDTSKNQFSLRLSSVTAADTAVYYCTSVHQETKMCTASIPPQCYNYEWHVDVWGQGLLVTVSS
VL: DIQMTQSPSSLSASVGDRVTITCRASGNIHNYLAWYQQKPGKAPKLLIYYTTTLADGVPSRFSGSGSGTDYTFTISSLQPEDIATYYCQHFWSTPRTFGQGTKVEIKR
notes: as for B5
In the case of B7, in experiment [4], the binding result is on record as “binds”.

B8: trastuzumab-beta BCCX2 HC long (antibody, human IgG1, kappa, V domains shown)
VH: EVQLVESGGGLVQPGGSLRLSCAASGFNIKDTYIHWVRQAPGKGLEWVARIYPTNGYTRYADSVKGRFTISADTSKNTAYLQMNSLRAEDTAVYYCSRETKKYQSYRKCRGGRRWCYQKSYTYNYEDYWGQGTLVTVSS
VL: not shown
notes: also called HLCX
B8 came in with an inhibition constant Ki in experiment [2] of 2.07 nM. In experiment [3], this molecule registered a concentration for half-maximal inhibition (IC50) of 9.36 nM.

The values are drawn from US20160237156A1 (CALIFORNIA INSTITUTE FOR BIOMEDICAL RESEARCH, published 2016).
